In patent publication US20240425846A1:

Experiments:
[1] = molecular target: biotinylated human Her2 (HE2-H822R, Acro Biosystems) (human) (UniProt P04626); test: BLI (Octet), Her2-biotin on streptavidin tip, Fab at 20 nM, 1:1 fit; the filing doubts the fit because the response was low
[2] = molecular target: biotinylated human Her2 (HE2-H822R, Acro Biosystems) (human) (UniProt P04626); test: deep screening, equilibrium fit
[3] = molecular target: biotinylated human Her2 (HE2-H822R, Acro Biosystems) (human) (UniProt P04626); test: deep screening, biphasic dissociation fit, phase 1
[4] = molecular target: biotinylated human Her2 (HE2-H822R, Acro Biosystems) (human) (UniProt P04626); test: deep screening, equilibrium fit (column DS KD (M))
[5] = molecular target: biotinylated human Her2 (HE2-H822R, Acro Biosystems) (human) (UniProt P04626); test: flow cell equilibrium binding, ribosome-displayed scFv, 0.03-100 nM Her2-biotin and 100 nM AF532-streptavidin
[6] = molecular target: biotinylated human Her2 (HE2-H822R, Acro Biosystems) (human) (UniProt P04626); test: deep screening ('HER2affmat'), ribosome-displayed scFv on flow cell, 5 minutes of wash after 100 nM Her2-biotin:AF532-streptavidin
[7] = molecular target: biotinylated human Her2 (HE2-H822R, Acro Biosystems) (human) (UniProt P04626); test: deep screening, biphasic dissociation fit, phase 2
[8] = molecular target: biotinylated human Her2 (HE2-H822R, Acro Biosystems) (human) (UniProt P04626); test: flow cell kinetic dissociation, ribosome-displayed scFv, buffer wash after Her2-biotin/AF532-streptavidin
[9] = molecular target: biotinylated human Her2 (HE2-H822R, Acro Biosystems) (human) (UniProt P04626); test: deep screening, equilibrium fit (column DS KD (M)); remark: listed apart in the source

B1: G98A Fab (Fab)
VH: MQVQLVQSGAEVKKPGESLKISCKGSGYSFTSYWIAWVRQMPGKGLEYMGLIYPGDSDTKYSPSFQGQVTISVDKSVSTAYLQWSSLKPSDSAVYFCARHDVAYCSSSNCAKWPEYFQHWGQGTLVTVSSGGGGSGGGGSGGGGSQSVLTQPPSVSAAPGQKVTISCSGSSSNIGNNYVSWYQQLPGTAPKLLIYGHTNRPAGVPDRFSGSKSGTSASLAISGFRSEDEADYYCASWDYTLSGWVFGGGTKLTVLG
VL: B1 VH
[1]
  Kd: 46.9 nM

B2: Her2_G98A scFv (scFv)
scFv: MQVQLVQSGAEVKKPGESLKISCKGSGYSFTSYWIAWVRQMPGKGLEYMGLIYPGDSDTKYSPSFQGQVTISVDKSVSTAYLQWSSLKPSDSAVYFCARHDVAYCSSSNCAKWPEYFQHWGQGTLVTVSSGGGGSGGGGSGGGGSQSVLTQPPSVSAAPGQKVTISCSGSSSNIGNNYVSWYQQLPGTAPKLLIYGHTNRPAGVPDRFSGSKSGTSASLAISGFRSEDEADYYCASWDYTLSGWVFGGGTKLTVLGYMASGAEFGSGGQKQAEEAAAKAAADAKAKAEADAKAAEEAAKKAAADAKKKAEA
[2]
  Kd: 886 nM
[3]
  koff: 7.03e-05 s⁻¹
[4]
  Kd: 887 nM
[5]
  Kd: 16.2 nM
[6]
  fluorescent intensity at the 5-minute wash step: 190
[7]
  koff: 0.0134 s⁻¹
[8]
  koff: 0.000567 s⁻¹
[9]
  Kd: 24 nM
